This note sets out measurements from US20240270826A1 (NATIONAL RESEARCH COUNCIL OF CANADA, published 2024).

In assay [1] the target is Human SARS-CoV-2_Wuhan S (SmT1) (SARS-CoV-2 (Wuhan), UniProt P0DTC2 14-1208). Kind of assay: flow cytometry SVNA, VHH vs biotin-S binding to Vero E6 ACE2. Background: A flow cytometer gives signals particle by particle.
For assay [2], the target named is T1, SARS-CoV-2 S2 (aa686-1208) (Wuhan) (SARS-CoV-2 Wuhan, UniProt P0DTC2 686-1208).
T1 construct: NRC; FLAG, 6xHis tags
As to the kind of experiment: SPR, antigen on chip. (In general: In SPR one partner is held on a chip, and binding of the other changes the refractive index at the surface.)

For assay [3], the target named is T2, SARS-CoV-2 S1 (aa16-685) (Wuhan) (SARS-CoV-2 Wuhan, UniProt P0DTC2 16-685).
T2 construct: NRC; FLAG, 6xHis tags
As to the kind of experiment: SPR, antigen on chip.

Assay [4] has as its target T3, SARS-CoV-2 spike trimer S (Wuhan, SmT1) (SARS-CoV-2 Wuhan).
T3 construct: extracellular domain
As to the kind of experiment: SPR, antigen on chip.

Assay [5] has as its target SARS-CoV-2 S1-RBD fused to human Fc (S1-RBD-Fc) (SARS-CoV-2 Wuhan; human). Kind of assay: SPR, antigen on chip.

A word on the IC50: it is the midpoint of a concentration-inhibition curve. Low values mean inhibition by little substance, high ones a need for much substance. The IC99 is the concentration needed for an effect of 99%. As a reminder, the Kd is a measure of binding affinity in units of concentration. Low readings indicate tighter binding, high ones weaker binding. The term koff denotes the rate constant with which the complex falls apart. What is called kon is the rate constant with which the complex forms. A higher kon goes with fast association.

B1: NRCoV2-15 VHH (VHH)
VHH: EVQLVSSGGGLVEAGGSLRLSCIASGSTSGRNTMGWFRQAPGKQREWVAIVSTSGATNYAGSVKGRFTLSRDNAKNAVYLQMNNLKPEDTAVYYCYAAYGGGGDYWGQGTQVTVSS
In assay [1], B1 came in with an IC50 of 12.1 nM, an IC99 of 233 nM and an Imax % of 44%.

B2: NRCoV2-SR02 VHH (VHH)
VHH: EVQLVDSGGGLVQAGGSLRLSCTASEFTLNYYSIGWFRQSPGKEREGVSCIRYSGGGIDYADSVKGRFTISRDNAKNTVYLTMNSLKPEDTAVYYCAADRLYSRACPTAGGRNYWGQGTQVTVSS
As to B2, in assay [2], the binding result is “no binding”. In assay [3], this molecule gave an equilibrium dissociation constant (Kd) of 0.53 nM, a koff of 0.000555 s⁻¹ and a kon of 1.05e+06 M⁻¹ s⁻¹. In assay [4], this molecule came in with a Kd of 0.59 nM, a koff of 0.000571 s⁻¹ and a kon of 967000 M⁻¹ s⁻¹.

B3: NRCoV2-MRed04 VHH (VHH)
VHH: EVQLVESGGGLVQPGRSLRLSCAASGNSFSISTMGWFRQAPGKERELVASIWSDTTTSYADSVKGRFTISTDNTRTKVYLQMSSLNPEDTAVYYCAADRGFVVRGQYDYWGQGTQVTVSS
B3: in assay [1], the IC50 came to 6.1 nM, the IC99 amounted to 124 nM and the Imax % stood at 53%.

B4: NRCoV2-18 VHH (VHH)
VHH: EVQLVESGGGLVQAGGSLRLSCVASGITISGYNMAWWRQTRGKQTERVAFINSGGSTTYSDSVKGRFTISRDNGKNTAYLQMNSLNAEDTADYFCSLHTSHDYWGQGTQVTVSS
Consider B4, for which, in assay [2], the binding result is reported as “no binding”. Besides, the Kd in assay [5] came out at 0.736 nM; in assay [3], 0.536 nM; in assay [4], 0.384 nM. Moreover, the koff in assay [5] came out at 0.000197 s⁻¹; in assay [3], 0.000165 s⁻¹; in assay [4], 0.000152 s⁻¹. In addition, the kon in assay [5] is 268000 M⁻¹ s⁻¹; in assay [3] it was 308000 M⁻¹ s⁻¹; in assay [4] it was 395000 M⁻¹ s⁻¹.

B5: NRCoV2-18 VHH (VHH)
VHH: EVQLVESGGGLVQAGGSLRLSCVASGITISGYNMAWWRQTRGKQTERVAFINSGGSTTYSDSVKGRFTISRDNGKNTAYLQMNSLNAEDTADYFCSLHTSHDYWGQGTQVTVSS
For B5, in assay [1], the IC50 was found to be 8.9 nM, the IC99 is 133 nM and the Imax % amounted to 51%.

B6: NRCoV2-S2F3 VHH (VHH)
VHH: EVQLVQSGGGLVQAGGSLRLSCATSVRILSVPAMGWYRQAPGKEREMVAVITSGGSTNYADSVKGRFTISRDNAKNTVYLQMNSLKLEDTAVYQCNLRDILSQPFWGQGTQVTVSS
In the case of B6, in assay [2], the Kd came to 6.22 nM, the koff was found to be 0.000629 s⁻¹ and the kon is 101000 M⁻¹ s⁻¹. For the same molecule, in assay [3], the binding result is recorded as “no binding”. In assay [4], this molecule gave a Kd of 3.03 nM, a koff of 0.000473 s⁻¹ and a kon of 156000 M⁻¹ s⁻¹.

B7: NRCoV2-S2G3 VHH (VHH)
VHH: QVQLVQSGGGSVQAGGSLRLSCAASGSTFGIFLMGWRRQAPGKQRELVAHITSGGATNYADSVKGRFTISRDNAKNTVYLQMNSLEPEDTAVYYCYTTKRDDASVYWGQGTQVTVSS
In assay [2], B7 yielded a Kd of 4.28 nM, a dissociation rate constant (koff) of 0.000627 s⁻¹ and a kon of 147000 M⁻¹ s⁻¹. Besides, the binding result in assay [3] was “no binding”. Besides, in assay [4], binding was characterised by a dissociation constant (Kd) of 3.74 nM, the koff worked out at 0.000607 s⁻¹ and the kon was found to be 162000 M⁻¹ s⁻¹.

B8: NRCoV2-S2A4 VHH (VHH)
VHH: QVQLVQSGGGLVQAGGSLRLSCAVSGSPFRSNVMEWYRQAPGKQRELVASISTGGSRTYTDSVKGRFTISRDNAKNEAFLQMNSLKPEDTAVYYCHAAARDSHGIYLLDTWGQGTQVTVSS
In assay [2], B8 came in with a Kd of 14.7 nM, a koff of 0.000414 s⁻¹ and a kon of 28100 M⁻¹ s⁻¹. Moreover, the binding result in assay [3] is recorded as “no binding”. In assay [4], this molecule had a Kd of 12.8 nM, a koff of 0.000446 s⁻¹ and a kon of 34900 M⁻¹ s⁻¹.

B9: NRCoV2-SR01 VHH (VHH)
VHH: EVQLVQSGGGSVQAGGSLRLSCVASGFTFDNYAIGWFRQAPGKEREGVSCISGNGGVTIYADSVKGRFTISRDNAKNLVYLQMNSLKPEDTAVYYCAATGIRSTWSVYGCSRLAGPYDYWGQGTQVTVSS
Regarding B9, the binding result in assay [2] was “no binding”. Moreover, in assay [3], binding was characterised by a dissociation constant (Kd) of 0.437 nM, the koff was determined as 0.00158 s⁻¹ and the on-rate constant (kon) amounted to 3.63e+06 M⁻¹ s⁻¹. In assay [4], binding was characterised by a dissociation constant (Kd) of 0.445 nM, the koff was 0.00123 s⁻¹ and the kon is 2.77e+06 M⁻¹ s⁻¹.

B10: NRCoV2-20 VHH (VHH)
VHH: EVQLQQSGGGLVQPGGSLRLSCAASGRTFSNYVVGWFRQAPQAPGKDHEFVAVISGSDTETYYADSVKGRFTISRDNAKNTVYLQMNSLKPEDTAVYYCAADRGMSYYYTRATEYYYWGQGTQVTVSS
As for B10, the binding result in assay [2] was “no binding”. In addition, in assay [5], the Kd is 8.61 nM, the koff was 0.0123 s⁻¹ and the kon turned out to be 1.43e+06 M⁻¹ s⁻¹. In assay [3], this molecule registered a Kd of 9.63 nM, a koff of 0.0189 s⁻¹ and a kon of 1.96e+06 M⁻¹ s⁻¹. In addition, in assay [4], the Kd was found to be 6.73 nM, the koff amounted to 0.0159 s⁻¹ and the kon is 2.37e+06 M⁻¹ s⁻¹.

B11: NRCoV2-05 VHH (VHH)
VHH: EVKLVQSGGGLVQPGGSLRLSCAASGFIFSNYAMNWVRQAPGKGLEWVSGINSGGGDTRYADSVKGRFTVSRDNAKNTLYLQMNSLKPEDTGVYYCSKGPVSSYYGSGYDYRGQGTQVTVSS
In assay [1], B11 displayed an IC50 of 9.5 nM, an IC99 of 14.2 nM and an Imax % of 97%.

B12: NRCoV2-MRed05 VHH (VHH)
VHH: EVQLVESGGGLVQPGGSLRLSCAASGFTLDYYAIGWFRQAPGKEREGVSCISSSDGSTLYADSVKGRFTISRDNAKNTVYLQMNSLKPEDTAVYYCATGPQAYYSGSYYFQCPQAGMDYWGKGTQVTVSS
In assay [1], B12 gave an IC50 of 15 nM, an IC99 of 184 nM and an Imax % of 88%.

B13: NRCoV2-SR13 VHH (VHH)
VHH: EVQLVESGGGLVTTGGSLRLSCATSGSRFGSKHMAWYRQAPGKQRDLVAAISSGGSTHYGSSVKGRFTISRDNAKSTVYLQMNSLNPEDTAVFYCNMGGWDYRSNTYIPGSRSDYWGQGTQVTVSS
As for B13, the binding result in assay [2] was “no binding”. Besides, in assay [3], binding was put at a Kd of 2.43 nM, the koff was found to be 0.00545 s⁻¹ and the kon was found to be 2.25e+06 M⁻¹ s⁻¹. In assay [4], binding was put at a Kd of 2.62 nM, the koff was 0.00481 s⁻¹ and the kon was 1.83e+06 M⁻¹ s⁻¹.

B14: NRCoV2-14 VHH (VHH)
VHH: EVQLVSSGGGLVQAGGSLRLSCEASGTTFSHYAVGWYRQAPGKQREWVASISVFGSTTYGGSVAGRFTISRDNDKNTVDLQMNSLKPEDTAVYYCHAVNADIGGDYWGQGTQVTVSS
Take B14: in assay [1], the IC50 was found to be 21.3 nM, the IC99 came to 17400 nM and the Imax % was determined as 54%.

B15: NRCoV2-SR16 VHH (VHH)
VHH: QVQLVQSAGGLVQAGGSLRLSCVVSGTTFSRYHMGWHRQAPGKQRDFVAGISTSGAVTYADSAKGRFTISRDNAKNTVYLEMNSLKLEDTALYYCNTGGWDYRSSTFIMGLNWGQGTQVTVSS
Regarding B15, the binding result in assay [2] is recorded as “no binding”. In assay [3], the Kd came to 1.55 nM, the koff is 0.00115 s⁻¹ and the kon is 739000 M⁻¹ s⁻¹. Also, in assay [4], the Kd was 1.82 nM, the koff was 0.0012 s⁻¹ and the kon was 657000 M⁻¹ s⁻¹.

B16: NRCoV2-SR03 VHH (VHH)
VHH: AVQLVDSGGGLVQAGGSLRLSCAASGSIFSNNHMGWYRQAPGKQRELVAAISSGGKTNYADFAKGRFTISRDNAKNMVYLQMNSLKPEDTAVYYCNRGGWEYRSSYYIMGPHWGQGTQVTVSS
Consider B16, for which, in assay [2], the binding result is given as “no binding”. In assay [3], the Kd worked out at 1.13 nM, the koff stood at 0.00103 s⁻¹ and the kon was determined as 905000 M⁻¹ s⁻¹. In assay [4], this molecule displayed a Kd of 1.01 nM, a koff of 0.00102 s⁻¹ and a kon of 1.01e+06 M⁻¹ s⁻¹.

B17: NRCoV2-S2G4 VHH (VHH)
VHH: QVQLVQSGGGLVQAGGSLTLSCAPSGSTFSGYATNWYRQAPGKQRELVATISSDGDKNYADSVKGRFTISRDNAKNTVYLQMNSLKPEDTAVYYCNKHWWTGDWWGQGTQVTVSS
In assay [2], B17 registered a Kd of 0.413 nM, a koff of 0.000382 s⁻¹ and a kon of 925000 M⁻¹ s⁻¹. Also, the binding result in assay [3] is reported as “no binding”. In assay [4], this molecule returned a Kd of 0.232 nM, a koff of 0.000207 s⁻¹ and a kon of 893000 M⁻¹ s⁻¹.

B18: NRCoV2-10 VHH (VHH)
VHH: QLQLQESGGGLVQPGGSLTLSCAASGNTFSRSNMHWYRQAPGAQREWVAAISSRGISTYAYSAKGRFTISRDNAKNTVSLQMNSLKPEDTAVYYCYAADDLGDYWGQGTQVTVSS
With B18, in assay [1], the IC50 came out at 16.1 nM, the IC99 turned out to be 121 nM and the Imax % is 50%.

B19: NRCoV2-SR04 VHH (VHH)
VHH: QVQLVESGGGLVQAGGSLRLSCAASGRTFSSHTVGWYRQAPGKQRDLVAAISMGGNTNYADYADSVKGRFTISRDNAKNTLYLQMNSLKPEDTAVYYCNTAALVGNRLLPMATITWGQGTQVTVSS
For the molecule B19, the binding result in assay [2] was “no binding”. For the same molecule, in assay [3], binding was put at a Kd of 0.226 nM, the koff came to 0.000493 s⁻¹ and the kon was 2.18e+06 M⁻¹ s⁻¹. Further, in assay [4], the Kd stood at 0.14 nM, the koff was determined as 0.000335 s⁻¹ and the kon is 2.39e+06 M⁻¹ s⁻¹.
